Experimental data reported in PMC10006238.
Substitutions are numbered along the chain they refer to. Names and notes keep the numbering of the source.

Columns and labels:
[1] = biological target: VirC (Streptomyces virginiae); experiment: other fluorescence titration; tryptophan fluorescence quenching; VirC, VirD, VirD mutant or VirE at 5 μM in TE buffer (20 mM Tris-HCl pH 8.5, 2 mM EDTA), 25 °C, titrated with ACP ligand (0–150 μM); excitation 295 nm; one site-specific binding model; averaged data of two independent measurements
[2] = biological target: VirD (Streptomyces virginiae); experiment: as above
[3] = biological target: Se-VirD (Streptomyces virginiae); experiment: crystal structure; Se-VirD alone, 20% PEG 400, 20% PEG 800, 100 mM Tris-HCl pH 7.5; space group P4(1)2(1)2; Se-SAD, 1.7 Å
[4] = biological target: Se-VirD (Streptomyces virginiae); experiment: crystal structure; holo-ACP5b–Se-VirD complex, hanging drop, ratio 1:4, 100 mM calcium chloride, 30% PEG 1500, 10% 2-propanol, 100 mM imidazole-HCl pH 6.5; space group H3; 2.1 Å
[5] = biological target: VirE (Streptomyces virginiae); experiment: other fluorescence titration; tryptophan fluorescence quenching; VirC, VirD, VirD mutant or VirE at 5 μM in TE buffer (20 mM Tris-HCl pH 8.5, 2 mM EDTA), 25 °C, titrated with ACP ligand (0–150 μM); excitation 295 nm; one site-specific binding model; averaged data of two independent measurements
[6] = biological target: VirD (Streptomyces virginiae); experiment: SAXS; SEC-coupled SAXS (SWING beamline, Bio-SEC 100 Å column), 15 °C, 20 mM Tris-HCl pH 8.5, 300 mM NaCl, 5% glycerol, 50 μL at 5 mg/mL; curves compared with crystal structures or models (CRYSOL, SASREF)
[7] = biological target: VirE (Streptomyces virginiae); experiment: as above
[8] = biological target: VirD E128Q (Streptomyces virginiae); experiment: other fluorescence titration; tryptophan fluorescence quenching; VirC, VirD, VirD mutant or VirE at 5 μM in TE buffer (20 mM Tris-HCl pH 8.5, 2 mM EDTA), 25 °C, titrated with ACP ligand (0–150 μM); excitation 295 nm; one site-specific binding model; averaged data of two independent measurements

**Q.** Which results are given for apo-Sna ACP7 (domain or fragment)?
**A.** Kd [1]: 78 µM; Kd [2]: 166 µM

**Q.** Which stoichiometry N [3] does the source give for Se-VirD (enzyme) here?
**A.** 3

**Q.** What about the stoichiometry N [4] of the same molecule?
**A.** 3

**Q.** Which results are given for holo-Sna ACP7 (domain or fragment)?
**A.** Kd [1]: 13 µM; Kd [2]: 13 µM

**Q.** How did the Kd [1] turn out when “holo-ACP5a-ACP5b didomain (domain or fragment)” was run?
**A.** 17 µM

**Q.** And the Kd [2]?
**A.** 19 µM

**Q.** And the Kd [5]?
**A.** 42 µM

**Q.** How did the stoichiometry N [6] turn out when VirD (enzyme) was run?
**A.** 3

**Q.** Which stoichiometry N [7] does the source give for VirE (enzyme) here?
**A.** 3

**Q.** holo-ACP7 (domain or fragment) was tested. Which Kd [1] did it give?
**A.** 18 µM

**Q.** What about the Kd [2] of the same molecule?
**A.** 4.3 µM

**Q.** What about the Kd [5] of the same molecule?
**A.** 22 µM

**Q.** With apo-ACP7 (domain or fragment) as the molecule, how does the Kd [1] read?
**A.** 75 µM

**Q.** What about the Kd [2] of the same molecule?
**A.** 75 µM

**Q.** And the Kd [5]?
**A.** 301 µM

B1: apo-ACP5a (domain or fragment)
chain: GPGSAGRQEEIAEEVARLLAGVLYLEPDRLDPEETFLTLGVDSILGVEFVAAVNAAYPVGVKATALYDHPTPAAFARHIAESLGA
**Q.** With B1 as the molecule, how does the Kd [1] read?
**A.** 166 µM

**Q.** What about the Kd [2] of the same molecule?
**A.** 102 µM

**Q.** And the Kd [5]?
**A.** 653 µM

B2: holo-ACP5a E6761A (domain or fragment)
chain: B1 chain with E34A
modifications: phosphopantetheine (holo form)
**Q.** What does the source list for B2?
**A.** Kd [1]: 4.7 µM; Kd [2]: 6.1 µM

B3: apo-ACP5a L6764N (domain or fragment)
chain: B1 chain with L37N
**Q.** Which results are given for B3?
**A.** Kd [1]: 89 µM; Kd [2]: 83 µM

B4: acetoacetyl-ACP5a (domain or fragment)
chain: B1 chain
modifications: acetoacetyl form (acetoacetate as substrate mimic on the phosphopantetheine)
**Q.** For B4, which Kd [1] is on record?
**A.** 40 µM

B5: holo-ACP5a E6761A/L6764N (domain or fragment)
chain: B1 chain with E34A, L37N
modifications: phosphopantetheine (holo form)
**Q.** Which results are given for B5?
**A.** Kd [1]: 10 µM; Kd [2]: 7 µM

B6: holo-ACP5a L6764N (domain or fragment)
chain: B1 chain with L37N
modifications: phosphopantetheine (holo form)
**Q.** How did the Kd [1] turn out when B6 was run?
**A.** 11 µM

**Q.** And the Kd [2]?
**A.** 4.1 µM

B7: apo-ACP5a E6761A/L6764N (domain or fragment)
chain: B1 chain with E34A, L37N
**Q.** For B7, which Kd [1] is on record?
**A.** 61 µM

**Q.** And the Kd [2]?
**A.** 117 µM

B8: HMG-ACP5a (domain or fragment)
chain: B1 chain
modifications: HMG form ((RS)-3-hydroxy-3-methylglutarate as substrate mimic on the phosphopantetheine)
**Q.** For B8, which Kd [2] is on record?
**A.** 51 µM

B9: methylcrotonyl-ACP5a (domain or fragment)
chain: B1 chain
modifications: methylcrotonyl form (3-methylcrotonate as substrate mimic on the phosphopantetheine)
**Q.** For B9, which Kd [5] is on record?
**A.** 287 µM

B10: apo-ACP5a E6761A (domain or fragment)
chain: B1 chain with E34A
**Q.** With B10 as the molecule, how does the Kd [1] read?
**A.** 108 µM

**Q.** And the Kd [2]?
**A.** 186 µM

B11: acetoacetyl-ACP5b (domain or fragment)
chain: GPGSAVAVDPAPVARALREELARTLYCEPGDIDDEASFNTLGLDSILGVEFVAFVNQTYGLDEKAGILYDHPSLAALSRHVAGRAAPV
modifications: acetoacetyl form (acetoacetate as substrate mimic on the phosphopantetheine)
**Q.** Which Kd [1] does the source give for B11 here?
**A.** 4.3 µM

B12: holo-ACP5b (domain or fragment)
chain: B11 chain
modifications: phosphopantetheine (Ppant) on S6871
**Q.** Which results are given for B12?
**A.** Kd [1]: 3.8 µM; Kd [2]: 2.9 µM; Kd [5]: 6.8 µM

B13: methylcrotonyl-ACP5b (domain or fragment)
chain: B11 chain
modifications: methylcrotonyl form (3-methylcrotonate as substrate mimic on the phosphopantetheine)
**Q.** With B13 as the molecule, how does the Kd [5] read?
**A.** 30 µM

B14: apo-ACP5b (domain or fragment)
chain: B11 chain
**Q.** With B14 as the molecule, how does the Kd [1] read?
**A.** 77 µM

**Q.** And the Kd [2]?
**A.** 178 µM

**Q.** And the Kd [5]?
**A.** 171 µM

B15: HMG-ACP5b (domain or fragment)
chain: B11 chain
modifications: HMG form ((RS)-3-hydroxy-3-methylglutarate as substrate mimic on the phosphopantetheine)
**Q.** Which Kd [2] does the source give for B15 here?
**A.** 39 µM

**Q.** And the Kd [8]?
**A.** 33 µM
